Laboratory results from patent US20110294738A1, “PTHR1 RECEPTOR COMPOUNDS” (priority 2008, published 2011).
* marks the point of attachment. Palmitoyl = CCCCCCCCCCCCCCCC(=O)*

Assays:
PTHR1 [1] = target: T1, PTHR1 (Rattus norvegicus, UniProt P25961)
T1 sequence (P25961 27-591): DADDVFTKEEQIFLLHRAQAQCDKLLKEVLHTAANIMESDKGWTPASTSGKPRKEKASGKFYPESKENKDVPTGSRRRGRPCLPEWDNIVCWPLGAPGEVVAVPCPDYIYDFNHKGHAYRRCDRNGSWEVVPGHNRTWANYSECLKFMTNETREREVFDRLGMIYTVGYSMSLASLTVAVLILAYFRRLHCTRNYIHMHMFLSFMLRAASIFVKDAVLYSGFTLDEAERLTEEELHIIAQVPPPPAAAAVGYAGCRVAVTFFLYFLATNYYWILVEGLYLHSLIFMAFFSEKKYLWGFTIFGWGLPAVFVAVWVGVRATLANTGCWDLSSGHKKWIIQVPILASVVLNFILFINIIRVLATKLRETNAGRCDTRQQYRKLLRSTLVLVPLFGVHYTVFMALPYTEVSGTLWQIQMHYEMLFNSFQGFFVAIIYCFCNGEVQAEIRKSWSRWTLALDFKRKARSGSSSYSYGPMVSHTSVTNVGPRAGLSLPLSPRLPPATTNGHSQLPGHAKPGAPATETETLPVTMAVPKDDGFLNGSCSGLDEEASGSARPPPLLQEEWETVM
Experimental: (§1) cAMP Screening Assay Using DiscoveRX XS+ Kit
(§2) UMR-106 cells were seeded in 96-well white plates at 10K cells/well in growth media. Twenty four hours after seeding, cell media was removed by gentle dumping and replaced with 30 μL of compounds diluted to 10 μM final concentration in assay buffer (Hank's balanced Salt Solution, 20 mM HEPES, pH 7.4, 0.1 μM IBMX). After 30 minute incubation at room temperature, 10 μL human PTH1-34 serial diluted in assay buffer was added. Cells were incubated at 37° C. for 15 minutes before 10 μL of water soluble analog of forskolin, NKH477 was added to final concentration of 10 μM followed by 60 minute incubation at room temperature. DiscoveRX cAMP XS+ kit reagents were then added following manufacture protocol. Briefly, 10 μL of antibody was added to each well followed by 40 μL of ED/Lysis buffer mix (1/5/19 for Galacon-star/Emerald/Lysis buffer and then 1:1 with ED). After 1 hour incubation, 40 μL of EA reagent was added followed by at least 1 hour incubation before the plates were read on TopCount reader. Data was analyzed using GraphPad Prism. PTH1-34 dose-response curves were fitted using non-linear curve fit (Y=Bottom+(Top−Bottom)/(1+10̂((Log EC50−X)*HillSlope))). PTH1-34 EC50 values calculated in the presence of compounds were compared to that in the presence of vehicle control. The ratio of the EC50 values were calculated and presented as fold shift (EC50 compound/EC50 vehicle). The effect of compounds on PTH1-34 stimulated maximal response was also assessed and was presented percent inhibition (1−(Emax compound/Emax vehicle)).

PTHR1 [2] = target: T1, PTHR1; assay: cAMP screening assay using DiscoveRX XS+ kit (PTH1-34 dose-response in UMR-106 cells); conditions: compound 10 μM, PTH1-34 stimulated maximal response, 1−(Emax compound/Emax vehicle)
Experimental: as §1, §2

Compound	Fold Shift of EC50 (PTHR1 [1])	Inhibition of Maximal Response (PTHR1 [2]) [%]
VLATKLRETNAGRSDTRQQ [Compound 46]	0.9	20.30
TNAGRSDTRQQYRKLLF [Compound 83]	7	−5.80
DTRQQYRKLLKSTL [Compound 56]	1.9	−30.40
LAYFRRLHSTRNYIH [Compound 5]	1	13.00
RETNAGRSDTRQQY [Compound 62]	1.1	−5.40
LAYFRRLHSTRN [Compound 14]	0.7	15.20
NGEVQAEIKKSWSR [Compound 100]	1.8	26.80
LYLHSLIFMAFFSEKKYLWG [Compound 38]	1.1	21.90
TNAGRSDTRQQYRKLLK [Compound 84]	9.1	−25.20
LYLHSLIFMAFFSEKKYL [Compound 39]	1.3	29.30
SGRVLATKLRETNA [Compound 73]	0.8	32.30
SGRVLATKLR [Compound 71]	0.8	13.50
RETNAGRSDTRQ [Compound 63]	1.1	1.20
RETNAGRSDTRQQRKLLKS [Compound 48]	7	−3.30
LHSLIFMAFFSEKKYLWGFT [Compound 37]	1.1	35.60
SGRRLHSTRNYIHMH [Compound 17]	2.8	39.40
YFRRLHSTRNYIH [Compound 6]	1	10.80
HSLIFMAFFSEKKYL [Compound 33]	1.1	27.50
GGYFRRLHSTRNYIH [Compound 13]	0.7	29.20
RSDTRQQYRKLLKS [Compound 66]	16.4	−39.00
DTRQQYRKLLKS [Compound 67]	6	6.90
SRWTLALDFKRKAR [Compound 104]	1.2	26.80

Compound	Fold Shift of EC50 (PTHR1 [1])	Inhibition of Maximal Response (PTHR1 [2]) [%]
RETNAGRSDTRQQYRK [Compound 60]	3.3	4.30
GSEKKYLWG [Compound 43]	1.4	5.70
TNAGRSDTRQQYRKLLKS [Compound 64]	7	−0.10
NIVRVLATKLRETNAGRSD [Compound 44]	2	−8.30
NGEVQAEIKKSWSRWT [Compound 101]	1.2	25.30
RETNAGRSDTRQQYRKLL [Compound 59]	5.2	3.00
SWSRWTLALDFKRKAR [Compound 102]	1	−25.40
LAYFRRLHSTRNYIHMH [Compound 10]	1.1	24.10
TNAGRSDTRQQYRKLLKSTL [Compound 52]	11.1	1.70
RRLHSTRNYIHMH [Compound 1]	1.3	5.50
TNAGRSDTRQQYRKLLFA [Compound 86]	3.6	5.20
Pal-NGEVQAEIKKSWSRWTLALD-amide (Palmitoyl-NGEVQAEIKKSWSRWTLALD-NH2; SMILES CCCCCCCCCCCCCCCC(=O)N[C@@H](CC(N)=O)C(=O)NCC(=O)N[C@@H](CCC(=O)O)C(=O)N[C@H](C(=O)N[C@@H](CCC(N)=O)C(=O)N[C@@H](C)C(=O)N[C@@H](CCC(=O)O)C(=O)N[C@H](C(=O)N[C@@H](CCCCN)C(=O)N[C@@H](CCCCN)C(=O)N[C@@H](CO)C(=O)N[C@@H](Cc1c[nH]c2ccccc12)C(=O)N[C@@H](CO)C(=O)N[C@@H](CCCNC(=N)N)C(=O)N[C@@H](Cc1c[nH]c2ccccc12)C(=O)N[C@H](C(=O)N[C@@H](CC(C)C)C(=O)N[C@@H](C)C(=O)N[C@@H](CC(C)C)C(=O)N[C@@H](CC(=O)O)C(N)=O)[C@@H](C)O)[C@@H](C)CC)C(C)C) [Compound 105]	1.1	34.00
VRVLATKLRETNAGRSDTR [Compound 45]	1.4	9.10
LAYFRRLHSTRNYI [Compound 9]	1.1	12.70
EIKKSWSRWTLALDFKRKAR [Compound 96]	1.1	7.00
HSLIFMAFFSEKKYLWGFT [Compound 36]	1.2	5.90
SGRVLATKLRET [Compound 72]	0.7	22.30
TNAGRSDTRQQYRK [Compound 69]	5.2	2.50
NGEVQAEIKKSWSRWTLA [Compound 98]	1	0.50
RETNAGRSDTRQQYRKLLKS [Compound 51]	12.45	–
CCCCCCCCCCCCCCCC(=O)N[C@@H](Cc1c[nH]c2ccccc12)C(=O)N[C@H](C(=O)N[C@@H](CC(C)C)C(=O)N[C@@H](C)C(=O)N[C@@H](CC(C)C)C(=O)N[C@@H](CC(=O)O)C(=O)NC(Cc1ccccc1)C(=O)N[C@@H](CCCCN)C(=O)N[C@@H](CCCNC(=N)N)C(=O)N[C@@H](CCCCN)C(=O)N[C@@H](C)C(=O)N[C@@H](CCCNC(=N)N)C(N)=O)[C@@H](C)O (stereo partly shown) [Compound 103]	1.2	–
TNAGRSDTRQQYRKLL [Compound 68]	12.36	–
